According to publication PMC9597381, “Molecular determinants of TRAF6 binding specificity suggest that native interaction partners are not optimized for affinity” (Protein Science : A Publication of the Protein Society, 2022):
Where “and” joins values, the source holds several entries; their conditions need not be identical. Equal entries are not always repeated.

T1: monomeric TRAF6 (T6m), TRAF6 MATH domain (Homo sapiens, UniProt Q9Y4K3)
T1 construct: (human TRAF6 residues 350-501) – LE – HHHHHH; made in house; host or cells: E. coli Rosetta2(DE3)
T1 sequence (Q9Y4K3 350-501): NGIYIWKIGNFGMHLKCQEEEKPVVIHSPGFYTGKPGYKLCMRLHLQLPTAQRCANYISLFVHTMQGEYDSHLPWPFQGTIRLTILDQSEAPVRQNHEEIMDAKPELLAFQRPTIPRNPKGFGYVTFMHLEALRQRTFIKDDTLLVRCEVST

T2: TRAF6 trimeric construct T6cc (coiled-coil and MATH domains) (human, UniProt Q9Y4K3 310-504, biotin on the BAP tag)
T2 chain: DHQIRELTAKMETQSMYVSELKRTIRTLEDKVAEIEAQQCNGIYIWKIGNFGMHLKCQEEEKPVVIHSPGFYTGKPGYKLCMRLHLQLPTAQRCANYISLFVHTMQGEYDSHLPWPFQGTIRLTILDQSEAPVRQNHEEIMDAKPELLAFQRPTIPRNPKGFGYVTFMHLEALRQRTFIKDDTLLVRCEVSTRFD

T3: TRAF6 trimeric construct T6cc (coiled-coil and MATH domains) (human, UniProt Q9Y4K3 310-504, biotin on the BAP tag)
T3 construct: human TRAF6, residues 310-504, including the coiled-coil trimerization domain and the MATH domain; Expressed from a pDW363 vector; Concentrations of T6cc are reported as monomer concentrations; also called trimeric TRAF6; biotinylated TRAF6 homotrimers; source: E. coli BL21(DE3), co-expressed with BirA, purified (Ni-NTA, gel filtration); not shown: BAP tag, N-terminal, kept
T3 sequence (looked up): T2 chain

B1: TRAF6 monomeric MATH domain construct T6m (domain or fragment)
chain: T1 sequence (Q9Y4K3 350-501)
B2: TRAF6 trimeric construct T6cc (coiled-coil and MATH domains) (domain or fragment)
chain: T2 chain
modifications: biotin on the BAP tag
B3: CD40* peptide (KQEPQEIDF with 8 flanking CD40 residues on each side) displayed on E. coli via eCPX (peptide)
peptide: PTNKAPHPKQEPQEIDFPDDLPGSNT
notes: 9 residues resolved in PDB 1LB6 plus 8 flanking residues on each side; also called KQEPQEIDF (CD40*); not shown: eCPX (re-engineered OmpX), N-terminal, kept; FLAG, N-terminal, kept

Biological target: biotinylated SUMO-peptide fusion of …
Assay: BLI; biotinylated SUMO-peptides immobilised on streptavidin tips, T6m in solution; room temperature; 20 mM Tris pH 8.0, 207 mM NaCl, 1 mM DTT, 1% glycerol, 0.1% BSA, 0.1% Tween-20; steady-state fit, SUMO-only control subtracted
Conditions: not given

Row | Kd | Molecule
1 | 37000 nM and 28000 nM and 24000 nM | B1

Biological target: biotinylated SUMO-peptide fusion of CD40* (…) (human)
Assay: as above
Conditions: not given

Row | Kd | Molecule
2 | 240000 nM | B1

Biological target: RANK peptide (Homo sapiens)
Assay: ITC
Conditions: cited from earlier work

Row | Molecule | Kd
3 | TRAF6 (from UniProt Q9Y4K3) | 78000 nM

Biological target: T1, monomeric TRAF6 (T6m), TRAF6 MATH domain
Assay: Biolayer interferometry (BLI), SUMO-peptide on tip, TRAF6 monomer in solution
Conditions: biotinylated SUMO-peptide on streptavidin tip, T6m in solution up to 150 μM; 20 mM Tris pH 8.0, 207 mM NaCl; room temperature; steady-state fit; average of 3 replicate binding curves ± SEM
Text: To further validate the cell‐surface interactions identified in the screen, we measured TRAF6‐peptide binding by biolayer interferometry (BLI), using purified monomeric TRAF6 MATH domain (construct termed T6m) in solution and purified peptides attached to the sensor tip (see Table S1 for construct details). […] The BLI data validate the cell‐surface display results and support the conclusion that top hits from the screen bind with higher affinity than CD40*, which is one of the tightest known TRAF6 peptide binders[19] (Figure 3). Based on these observations, we conclude that despite the screening assay being performed in the environment of the cell surface, and in a multi‐valent context, enrichment sorting returned high‐affinity binders.
Vectors, bacterial cells, and cloning: The expression constructs and cell surface display constructs are detailed in Table S1. The TRAF6 trimeric construct, here termed T6cc, consisted of residues 310–504 of human TRAF6 (including the MATH domain and coiled‐coil trimerization domain), an N‐terminal BAP tag for biotinylation, and a hexahistidine tag for purification. The construct was expressed using a pDW363 vector to ensure biotinylation. A monomeric TRAF6 construct lacking the trimerization domain and BAP tag, here termed T6m, consisted of residues 350–501 of human TRAF6 and a hexahistidine tag. The construct was expressed in a pDW363 vector, although the lack of a BAP tag ensured no biotinylation of this protein. SUMO‐peptide fusion constructs contained a BAP tag, hexahistidine tag, and SUMO tag. The construct was expressed in a pDW363 vector to ensure biotinylation. E. coli strains BL21(DE3), DH5α, and MC1061 were used for protein expression, cloning, and surface display, respectively. For bacterial surface display of TRAF6‐binding peptides, the eCPX vector designed by the Daugherty group[56] was modified at the C‐terminus to append a FLAG sequence, a linker containing a SfiI site, and the CD40* peptide sequence, which included 9 residues resolved in the X‐ray structure of CD40* bound to TRAF6 (PDB ID: 1LB6[19]) plus 8 flanking residues on each side of this core region. The CD40*‐derived sequence used was […].
Protein purification and preparation: T6cc was co‐expressed with the biotin ligase BirA (from the pDW363 vector) in BL21(DE3) E. coli for 5 hours at 37°C. Media was supplemented with 0.05 mM D‐(+)‐biotin. The protein was then purified using Ni^2+‐NTA affinity chromatography followed by gel‐filtration chromatography into a final buffer of 20 mM Tris pH 8.0, 150 mM NaCl, 5% glycerol, 1 mM DTT. Purified protein was concentrated before storing at −80°C in aliquots for later use. Concentrations of T6cc are reported as monomer concentrations. […]

Row | Kd | Molecule
4 | 24000 ± 3800 nM | RNVPEESDW
5 | 27500 nM | LNLPEESDW
6 | 37200 nM | TNWPEENDW
7 | 240000 ± 23000 nM | KQEPQEIDF [CD40*, reference compound]

Biological target: … peptide displayed on E. coli via eCPX (human)
Assay: flow cytometry on cells; single-clone titration: biotinylated T6cc (0 nM to 3 uM, eight concentrations) on peptide-displaying E. coli, 4°C 60 min in PBS + BSA, detected with streptavidin-PE; apparent cell-surface constant Kd*, multivalent, not likely at equilibrium
Conditions: not given

Row | Kd | Molecule
8 | 84 nM and 46 nM and 31 nM | B2

Biological target: T2, TRAF6 trimeric construct T6cc …
Assay: FACS; apparent Kd*, cell-surface display
Conditions: not given

Row | Kd | Molecule
9 | 498 nM | LQLPEENDW
10 | 58.3 nM | RNWPTETDW
11 | 240 nM | GKYPEENDW
12 | 260 nM | RNVPEEIYW
13 | 169 nM | TRMPVESDW
14 | 186 nM | HNIPTETSW
15 | 45.2 nM | QNLPTESDW
16 | 332 nM | SPVPEESTW
17 | 581 nM | TYGPVENSW
18 | 110 nM | MNAPVESDW
19 | 374 nM | PQDPVETFW

Biological target: T3, TRAF6 trimeric construct T6cc …
Assay: flow cytometry on cells; single-clone titration: biotinylated T6cc (0 nM to 3 uM, eight concentrations) on peptide-displaying E. coli, 4°C 60 min in PBS + BSA, detected with streptavidin-PE; apparent cell-surface constant Kd*, multivalent, not likely at equilibrium
Conditions: one partner purified

Row | Kd | Molecule
20 | 1200 nM | B3

Biological target: T2, TRAF6 trimeric construct T6cc …
Assay: FACS
Conditions: not given

Row | Kd | Molecule
21 | 498 nM | LQLPEENDW
22 | 58.3 nM | RNWPTETDW
23 | 240 nM | GKYPEENDW
24 | 260 nM | RNVPEEIYW
25 | 169 nM | TRMPVESDW
26 | 186 nM | HNIPTETSW
27 | 45.2 nM | QNLPTESDW
28 | 332 nM | SPVPEESTW
29 | 581 nM | TYGPVENSW
30 | 110 nM | MNAPVESDW
31 | 374 nM | PQDPVETFW

Biological target: TRAF6
Assay: not given
Conditions: reported affinity for TRAF6, ITC; read-out: Kd by isothermal titration calorimetry; cited from earlier work
Text: High‐affinity TRAF6 binders isolated in this work can serve as lead peptides for inhibitor development. TRAF6 signaling is implicated in inflammation and cardiovascular disease.[12], [13], [18] Targeting TRAF6 MATH is reported to improve insulin sensitivity in obese mice, improve heart function in mouse models of non‐ischemic cardiac failure, reduce atherosclerosis, and inhibit osteoclastogenesis and bone resorption.[14], [15], [16], [17] A RANK peptide attached to a protein transduction sequence to promote cell entry is currently sold commercially as a TRAF6 inhibitor (e.g., Novus Biologicals ...

Row | Molecule | Kd
32 | KQEPQEIDF [CD40*, reference compound] | 84000 nM
